In the test the target is T1, human BiP (Homo sapiens, UniProt P11021).
T1 construct: The human BiP gene except the signal peptide encoding region was obtained from Geneart (Germany); linker […]; made in house; host or cells: HEK 293E cells, transient transfection, PABC674 vector; secreted into the medium
In words: ELISA: binding of BiP-FLAG-His to immobilized (misfolded) protein ligands. The note with it: ligands coated at 5 μg/ml; 6BB peptides and oxLDL 50 μg/ml. The procedure, abridged: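 Ligands were coated at 5 μg/ml (50 μg/ml for 6BB# peptides and oxLDL) in 50 mM NaHCO3 pH 9.6, blocked, then incubated in triplicate with BiP-FLAG-His dilution series for 1 h at room temperature. Bound BiP was detected with peroxidase anti-FLAG M2 and TMB, stopped after 5 min and read at 450 nm. Buffer-only and chaperone-omitted background signals were subtracted.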
In general terms: An ELISA detects its analyte on a solid surface through an enzyme-linked reagent.

The record followed here is patent US20100015126A1, “Methods of Binding of Cross-Beta Structures By Chaperones” (priority 2006, published 2010).

T1 sequence (P11021 19-654): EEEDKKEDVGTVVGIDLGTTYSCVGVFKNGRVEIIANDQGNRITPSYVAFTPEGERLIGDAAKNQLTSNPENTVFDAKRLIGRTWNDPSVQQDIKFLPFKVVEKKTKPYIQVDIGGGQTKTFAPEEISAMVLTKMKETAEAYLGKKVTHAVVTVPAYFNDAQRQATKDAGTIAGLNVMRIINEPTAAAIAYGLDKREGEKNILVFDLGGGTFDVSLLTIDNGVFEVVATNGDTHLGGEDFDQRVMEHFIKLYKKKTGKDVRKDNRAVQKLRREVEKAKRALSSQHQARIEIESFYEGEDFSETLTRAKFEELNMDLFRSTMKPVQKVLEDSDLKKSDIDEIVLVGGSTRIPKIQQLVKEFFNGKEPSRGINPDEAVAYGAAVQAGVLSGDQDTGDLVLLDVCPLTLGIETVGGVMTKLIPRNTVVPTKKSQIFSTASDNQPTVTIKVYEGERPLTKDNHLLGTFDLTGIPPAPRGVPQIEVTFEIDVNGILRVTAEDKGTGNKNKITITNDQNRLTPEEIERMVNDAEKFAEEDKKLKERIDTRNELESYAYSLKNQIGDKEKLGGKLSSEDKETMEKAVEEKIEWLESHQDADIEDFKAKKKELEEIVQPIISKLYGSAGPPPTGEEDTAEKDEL

On to AGEYYAAL [6BB7], for which the “Binding of concentration series of BiP to coated ligand” value (“Binding of concentration series of BiP” below) is given as “did not bind”.

As to BSA-AGE, the “Binding of concentration series of BiP” value is “has been established”. The result for GSNKGAIIGLM [6BB6, Human Aβ (25-35)] reads “has been established”; that for “Hb: non-modified human haemoglobin control”, “did not bind”; that for “HbAGE: human haemoglobin glycated with glucose-6-phosphate for 75 weeks”, “has been established”. As for KLVFFAE [6BB12, Human Aβ16-22], the “Binding of concentration series of BiP” value was “no BiP binding was observed”.

As to “native BSA: non-modified bovine serum albumin control”, the “Binding of concentration series of BiP” value was “did not bind”.
